Consider 125 sequences from the supplement of paper PMC9112550, “Optimization of the antimicrobial peptide Bac7 by deep mutational scanning” (BMC Biology, 2022).
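Note: peptides expressed intracellularly from a pBAD plasmid library in pooled LB shake-flask culture, induced with 0.3% L-arabinose, DNA abundance read by NGS, three biological replicates, DESeq2 with apeglm shrinkage.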

The data set relates to Escherichia coli TOP10. Put plainly: shrunken log2 fold change of peptide-encoding DNA abundance (4.5 h post-induction vs induction); higher = less antimicrobial activity (less host growth inhibition). The conditions noted are these: time post-induction: 4.5 h; library: site-saturation at positions 5, 18, 19, 20.
With RRIRYRPPRLPRPRPRPVFEPRP, the “shrunken log2 fold change” value stood at 0.0623.
Next, RRIRARPPRLPRPRPRPRRVPRP: 1.36; RRIRERPPRLPRPRPRPILDPRP: -0.209.
Regarding RRIRSRPPRLPRPRPRPFATPRP, the “shrunken log2 fold change” value stood at 0.461.
Next, RRIRSRPPRLPRPRPRPYDFPRP: -0.195; RRIRWRPPRLPRPRPRPHSEPRP: -0.162; RRIRGRPPRLPRPRPRPKMDPRP: 0.738.
Next, RRIRIRPPRLPRPRPRPAVTPRP: -0.322.
Next, RRIRGRPPRLPRPRPRPNQIPRP: 0.109; RRIRHRPPRLPRPRPRPKWSPRP: 0.0617; RRIRSRPPRLPRPRPRPPSKPRP: 0.0454.
For RRIRQRPPRLPRPRPRPVNPPRP, the “shrunken log2 fold change” value is -0.085.
Next, RRIRNRPPRLPRPRPRPFGGPRP: -0.133; RRIRTRPPRLPRPRPRPNPYPRP: -0.121.
Next, RRIRNRPPRLPRPRPRPWGTPRP: 0.0962.
Next, RRIRARPPRLPRPRPRPKPTPRP: 0.744.
As for RRIRRRPPRLPRPRPRPPFPPRP, the “shrunken log2 fold change” value is 0.645.
For the sequence RRIRWRPPRLPRPRPRPYKHPRP, the “shrunken log2 fold change” value was -1.24.
Next, RRIRCRPPRLPRPRPRPYEQPRP: -0.435; RRIRDRPPRLPRPRPRPAGRPRP: 0.632.
Next, RRIRDRPPRLPRPRPRPNDAPRP: 0.0621; RRIRPRPPRLPRPRPRPTKGPRP: 0.0911.
Next, RRIRSRPPRLPRPRPRPFKQPRP: -0.468; RRIRIRPPRLPRPRPRPAQIPRP: 0.0984.
In the case of RRIRVRPPRLPRPRPRPQRHPRP, the “shrunken log2 fold change” value is -0.0604.
Consider RRIRIRPPRLPRPRPRPTWTPRP, for which the “shrunken log2 fold change” value worked out at 0.398.
Next, RRIRPRPPRLPRPRPRPDKLPRP: 0.038; RRIRVRPPRLPRPRPRPTTIPRP: -0.0865.
Next, RRIRQRPPRLPRPRPRPVVFPRP: 1.25.
Next, RRIRLRPPRLPRPRPRPWPFPRP: -0.0764.
Turning to RRIRRRPPRLPRPRPRPDQEPRP, the “shrunken log2 fold change” value amounted to 0.0223.
Regarding RRIRGRPPRLPRPRPRPLLYPRP, the “shrunken log2 fold change” value came out at 0.473.
Turning to RRIRSRPPRLPRPRPRPECCPRP, the “shrunken log2 fold change” value amounted to 0.21.
Next, RRIRHRPPRLPRPRPRPNYPPRP: -0.32; RRIRIRPPRLPRPRPRPDCSPRP: 0.0951; RRIRERPPRLPRPRPRPSMEPRP: -0.14.
Next, RRIRERPPRLPRPRPRPGQIPRP: 0.0685; RRIRKRPPRLPRPRPRPGGSPRP: 0.178; RRIRRRPPRLPRPRPRPKMLPRP: 0.161.
Next, RRIRVRPPRLPRPRPRPYGGPRP: -0.374; RRIRVRPPRLPRPRPRPQCFPRP: 0.00325.
Regarding RRIRMRPPRLPRPRPRPTQVPRP, the “shrunken log2 fold change” value was 1.17.
Next, RRIRIRPPRLPRPRPRPEKNPRP: -0.232; RRIRRRPPRLPRPRPRPKYSPRP: -0.124; RRIRNRPPRLPRPRPRPVFLPRP: -0.215.
Next, RRIRWRPPRLPRPRPRPYTEPRP: -0.118; RRIRYRPPRLPRPRPRPCWAPRP: -0.434; RRIRYRPPRLPRPRPRPHFPPRP: -0.00195.
Next, RRIRVRPPRLPRPRPRPWNYPRP: -0.0949; RRIRVRPPRLPRPRPRPLQCPRP: -0.371.
Regarding RRIRMRPPRLPRPRPRPNESPRP, the “shrunken log2 fold change” value was determined as 0.923.
As for RRIRRRPPRLPRPRPRPVMWPRP, the “shrunken log2 fold change” value was determined as 0.0562.
For the sequence RRIRTRPPRLPRPRPRPRHEPRP, the “shrunken log2 fold change” value is -0.13.
Next, RRIRKRPPRLPRPRPRPEFEPRP: 1.34.
Next, RRIRARPPRLPRPRPRPPPTPRP: 1.13; RRIRMRPPRLPRPRPRPNMRPRP: 1.6; RRIRCRPPRLPRPRPRPTEHPRP: 0.00581.
RRIRMRPPRLPRPRPRPNLMPRP: the “shrunken log2 fold change” value was -0.126.
Next, RRIRLRPPRLPRPRPRPWYRPRP: -0.3; RRIRMRPPRLPRPRPRPQCEPRP: -0.00192.
In the case of RRIRYRPPRLPRPRPRPVPRPRP, the “shrunken log2 fold change” value came to 0.204.
Next, RRIRGRPPRLPRPRPRPPLRPRP: 0.796.
On to RRIRKRPPRLPRPRPRPAQIPRP, for which the “shrunken log2 fold change” value is 0.342.
Next, RRIRVRPPRLPRPRPRPARRPRP: 0.382; RRIRPRPPRLPRPRPRPDLYPRP: -0.153.
Next, RRIRGRPPRLPRPRPRPTSEPRP: 0.339.
Next, RRIRIRPPRLPRPRPRPLHYPRP: -0.779.
As for RRIRERPPRLPRPRPRPPADPRP, the “shrunken log2 fold change” value was determined as 0.152.
As for RRIRKRPPRLPRPRPRPNPDPRP, the “shrunken log2 fold change” value was 0.383.
On to RRIRLRPPRLPRPRPRPTPRPRP, for which the “shrunken log2 fold change” value was determined as 0.763.
Next, RRIRRRPPRLPRPRPRPNYKPRP: -0.232.
Next, RRIRLRPPRLPRPRPRPEPYPRP: -0.305; RRIRNRPPRLPRPRPRPFATPRP: -0.101.
For RRIRKRPPRLPRPRPRPWQAPRP, the “shrunken log2 fold change” value amounted to 0.000778.
Next, RRIRDRPPRLPRPRPRPHYHPRP: -0.806.
Next, RRIRNRPPRLPRPRPRPVSMPRP: -0.0312; RRIRTRPPRLPRPRPRPLFSPRP: -0.717; RRIRTRPPRLPRPRPRPSRSPRP: -0.0434.
Next, RRIRHRPPRLPRPRPRPKACPRP: -0.01.
With RRIRTRPPRLPRPRPRPACLPRP, the “shrunken log2 fold change” value was -0.217.
Turning to RRIRPRPPRLPRPRPRPCTRPRP, the “shrunken log2 fold change” value turned out to be 2.07.
Next, RRIRMRPPRLPRPRPRPNTYPRP: -0.0596; RRIRKRPPRLPRPRPRPMHMPRP: -0.331.
With RRIRFRPPRLPRPRPRPVEPPRP, the “shrunken log2 fold change” value was -0.228.
Take RRIRLRPPRLPRPRPRPIVMPRP: the “shrunken log2 fold change” value is -0.618.
As for RRIRFRPPRLPRPRPRPLAVPRP, the “shrunken log2 fold change” value stood at 0.249.
As for RRIRLRPPRLPRPRPRPAIGPRP, the “shrunken log2 fold change” value is -0.00988.
Next, RRIRVRPPRLPRPRPRPWFLPRP: -0.386; RRIRRRPPRLPRPRPRPPMRPRP: 1.03; RRIRYRPPRLPRPRPRPFFWPRP: -0.03.
Next, RRIRFRPPRLPRPRPRPKEVPRP: 0.0322; RRIRARPPRLPRPRPRPSNEPRP: 0.167; RRIRTRPPRLPRPRPRPIDEPRP: 0.0904.
Next, RRIRGRPPRLPRPRPRPMPPPRP: 1.23; RRIRNRPPRLPRPRPRPHCWPRP: 0.0498.
As to RRIRHRPPRLPRPRPRPAGIPRP, the “shrunken log2 fold change” value was -0.282.
Next, RRIRNRPPRLPRPRPRPIIRPRP: -0.00165.
Next, RRIRARPPRLPRPRPRPYPWPRP: -0.32; RRIRHRPPRLPRPRPRPSQFPRP: -0.247.
Next, RRIRNRPPRLPRPRPRPWRDPRP: -0.342.
Take RRIRIRPPRLPRPRPRPFVYPRP: the “shrunken log2 fold change” value was -0.625.
Next, RRIRRRPPRLPRPRPRPMDPPRP: 0.139; RRIRYRPPRLPRPRPRPHIDPRP: -1.95; RRIRFRPPRLPRPRPRPSCWPRP: 0.144.
Next, RRIRKRPPRLPRPRPRPAMDPRP: 0.231; RRIRKRPPRLPRPRPRPECVPRP: 1.69; RRIRHRPPRLPRPRPRPPPPPRP: 1.05.
Next, RRIRSRPPRLPRPRPRPGVYPRP: -0.0749; RRIRYRPPRLPRPRPRPTWGPRP: -0.19.
In the case of RRIRMRPPRLPRPRPRPERLPRP, the “shrunken log2 fold change” value was 0.442.
With RRIRERPPRLPRPRPRPQNSPRP, the “shrunken log2 fold change” value was -0.505.
Next, RRIRKRPPRLPRPRPRPGARPRP: 0.962; RRIRKRPPRLPRPRPRPHTKPRP: -0.0306.
Turning to RRIRCRPPRLPRPRPRPMQTPRP, the “shrunken log2 fold change” value is 1.52.
Turning to RRIRYRPPRLPRPRPRPYTKPRP, the “shrunken log2 fold change” value is -0.351.
Next, RRIRKRPPRLPRPRPRPFVKPRP: -0.00571; RRIRWRPPRLPRPRPRPCNYPRP: -0.2.
Next, RRIRWRPPRLPRPRPRPNNYPRP: -0.571; RRIRSRPPRLPRPRPRPCISPRP: -0.0391; RRIRSRPPRLPRPRPRPVQTPRP: 0.826.
Next, RRIRPRPPRLPRPRPRPVDVPRP: -0.0323; RRIRQRPPRLPRPRPRPWIVPRP: -0.0927.
Consider RRIRERPPRLPRPRPRPAYNPRP, for which the “shrunken log2 fold change” value was -0.449.
On to RRIRIRPPRLPRPRPRPMYVPRP, for which the “shrunken log2 fold change” value is 0.00823.
For RRIRTRPPRLPRPRPRPYIEPRP, the “shrunken log2 fold change” value was -1.14.
